In ChEMBL document CHEMBL2074000, “Transport of ethinylestradiol glucuronide and ethinylestradiol sulfate by the multidrug resistance proteins MRP1, MRP2, and MRP3” (J Pharmacol Exp Ther, 2004):

Assays:
[1] = substrate: C#C[C@]1(O)CC[C@H]2[C@@H]3CCc4cc(O[C@@H]5O[C@H](C(=O)O)[C@@H](O)[C@H](O)[C@H]5O)ccc4[C@H]3CC[C@@]21C; assay: TP_TRANSPORTER: uptake in membrane vesicle from MRP3-expressing Sf9 cells; assay type: functional, cell membranes
[2] = substrate: [H][C@@]12CC[C@@](O)(C#C)[C@@]1(C)CC[C@]1([H])c3ccc(O[C@@H]4O[C@H](C(=O)O)[C@@H](O)[C@H](O)[C@H]4O)cc3CC[C@@]21[H]; assay: TP_TRANSPORTER: uptake in membrane vesicles from MRP2-expressing Sf9 cells; assay type: functional, cell membranes, Membrane vesicle

Protein	Km [1]	Km [2]
Multidrug resistance associated protein (Homo sapiens), Q96QA9 (protein) MDALCGSGELGSKFWDSNLSVHTENPDLTPCFQNSLLAWVPCIYLWVALPCYLLYLRHHCRGYIILSHLSKLKMVLGVLLWCVSWADLFYSFHGLVHGRAPAPVFFVTPLVVGVTMLLATLLIQYERLQGVQSSGVLIIFWFLCVVCAIVPFRSKILLAKAEGEISDPFRFTTFYIHFALVLSALILACFREKPPFFSAKNVDPNPYPETSAGFLSRLFFWWFTKMAIYGYRHPLEEKDLWSLKEEDRSQMVVQQLLEAWRKQEKQTARHKASAAPGKNASGEDEVLLGARPRPRKPSFLKALLATFGSSFLISACFKLIQDLLSFINPQLLSILIRFISNPMAPSWWGFLVAGLMFLCSMMQSLILQHYYHYIFVTGVKFRTGIMGVIYRKALVITNSVKRASTVGEIVNLMSVDAQRFMDLAPFLNLLWSAPLQIILAIYFLWQNLGPSVLAGVAFMVLLIPLNGAVAVKMRAFQVKQMKLKDSRIKLMSEILNGIKVLKLYAWEPSFLKQVEGIRQGELQLLRTAAYLHTTTTFTWMCSPFLVTLITLWVYVYVDPNNVLDAEKAFVSVSLFNILRLPLNMLPQLISNLTQASVSLKRIQQFLSQEELDPQSVERKTISPGYAITIHSGTFTWAQDLPPTLHSLDIQVPKGALVAVVGPVGCGKSSLVSALLGEMEKLEGKVHMKGSVAYVPQQAWIQNCTLQENVLFGKALNPKRYQQTLEACALLADLEMLPGGDQTEIGEKGINLSGGQRQRVSLARAVYSDADIFLLDDPLSAVDSHVAKHIFDHVIGPEGVLAGKTRVLVTHGISFLPQTDFIIVLADGQVSEMGPYPALLQRNGSFANFLCNYAPDEDQGHLEDSWTALEGAEDKEALLIEDTLSNHTDLTDNDPVTYVVQKQFMRQLSALSSDGEGQGRPVPRRHLGPSEKVQVTEAKADGALTQEEKAAIGTVELSVFWDYAKAVGLCTTLAICLLYVGQSAAAIGANVWLSAWTNDAMADSRQNNTSLRLGVYAALGILQGFLVMLAAMAMAAGGIQAARVLHQALLHNKIRSPQSFFDTTPSGRILNCFSKDIYVVDEVLAPVILMLLNSFFNAISTLVVIMASTPLFTVVILPLAVLYTLVQRFYAATSRQLKRLESVSRSPIYSHFSETVTGASVIRAYNRSRDFEIISDTKVDANQRSCYPYIISNRWLSIGVEFVGNCVVLFAALFAVIGRSSLNPGLVGLSVSYSLQVTFALNWMIRMMSDLESNIVAVERVKEYSKTETEAPWVVEGSRPPEGWPPRGEVEFRNYSVRYRPGLDLVLRDLSLHVHGGEKVGIVGRTGAGKSSMTLCLFRILEAAKGEIRIDGLNVADIGDPILFSGTLRMNLDPFGSYSEEDIWWALELSHLHTFVSSQPAGLDFQCSEGGENLSVGQRQLVCLARALLRKSRILVLDEATAAIDLETDNLIQATIRTQFDTCTVLTIAHRLNTIMDYTRVLVLDKGVVAEFDSPANLIAARGIFYGMARDAGLA	9.2 µM	
ATP-binding cassette sub-family C member 2 (Homo sapiens) (protein) MLEKFCNSTFWNSSFLDSPEADLPLCFEQTVLVWIPLGYLWLLAPWQLLHVYKSRTKRSSTTKLYLAKQVFVGFLLILAAIELALVLTEDSGQATVPAVRYTNPSLYLGTWLLVLLIQYSRQWCVQKNSWFLSLFWILSILCGTFQFQTLIRTLLQGDNSNLAYSCLFFISYGFQILILIFSAFSENNESSNNPSSIASFLSSITYSWYDSIILKGYKRPLTLEDVWEVDEEMKTKTLVSKFETHMKRELQKARRALQRRQEKSSQQNSGARLPGLNKNQSQSQDALVLEDVEKKKKKSGTKKDVPKSWLMKALFKTFYMVLLKSFLLKLVNDIFTFVSPQLLKLLISFASDRDTYLWIGYLCAILLFTAALIQSFCLQCYFQLCFKLGVKVRTAIMASVYKKALTLSNLARKEYTVGETVNLMSVDAQKLMDVTNFMHMLWSSVLQIVLSIFFLWRELGPSVLAGVGVMVLVIPINAILSTKSKTIQVKNMKNKDKRLKIMNEILSGIKILKYFAWEPSFRDQVQNLRKKELKNLLAFSQLQCVVIFVFQLTPVLVSVVTFSVYVLVDSNNILDAQKAFTSITLFNILRFPLSMLPMMISSMLQASVSTERLEKYLGGDDLDTSAIRHDCNFDKAMQFSEASFTWEHDSEATVRDVNLDIMAGQLVAVIGPVGSGKSSLISAMLGEMENVHGHITIKGTTAYVPQQSWIQNGTIKDNILFGTEFNEKRYQQVLEACALLPDLEMLPGGDLAEIGEKGINLSGGQKQRISLARATYQNLDIYLLDDPLSAVDAHVGKHIFNKVLGPNGLLKGKTRLLVTHSMHFLPQVDEIVVLGNGTIVEKGSYSALLAKKGEFAKNLKTFLRHTGPEEEATVHDGSEEEDDDYGLISSVEEIPEDAASITMRRENSFRRTLSRSSRSNGRHLKSLRNSLKTRNVNSLKEDEELVKGQKLIKKEFIETGKVKFSIYLEYLQAIGLFSIFFIILAFVMNSVAFIGSNLWLSAWTSDSKIFNSTDYPASQRDMRVGVYGALGLAQGIFVFIAHFWSAFGFVHASNILHKQLLNNILRAPMRFFDTTPTGRIVNRFAGDISTVDDTLPQSLRSWITCFLGIISTLVMICMATPVFTIIVIPLGIIYVSVQMFYVSTSRQLRRLDSVTRSPIYSHFSETVSGLPVIRAFEHQQRFLKHNEVRIDTNQKCVFSWITSNRWLAIRLELVGNLTVFFSALMMVIYRDTLSGDTVGFVLSNALNITQTLNWLVRMTSEIETNIVAVERITEYTKVENEAPWVTDKRPPPDWPSKGKIQFNNYQVRYRPELDLVLRGITCDIGSMEKIGVVGRTGAGKSSLTNCLFRILEAAGGQIIIDGVDIASIGLHDLREKLTIIPQDPILFSGSLRMNLDPFNNYSDEEIWKALELAHLKSFVASLQLGLSHEVTEAGGNLSIGQRQLLCLGRALLRKSKILVLDEATAAVDLETDNLIQTTIQNEFAHCTVITIAHRLHTIMDSDKVMVLDNGKIIECGSPEELLQIPGPFYFMAKEAGIENVNSTKF		35.1 µM
